{"source": "paper PMC6221140", "test_in_all_cases": "two-hybrid; BACTH in E. coli BTH101 (cya); full length proteins fused to the C-terminus of T18 (pUT18C) or T25 (pKT25) of CyaA; blue colonies on X-Gal/IPTG plates, 30°C, 24 h, and β-galactosidase activity of liquid cultures in Miller units; biological duplicate", "key": {"[1]": {"biological_target": "SpoIIIAH (Clostridium difficile)"}, "[2]": {"biological_target": "SpoIIQ (Clostridium difficile)"}, "[3]": {"biological_target": "SpoIIM (Clostridium difficile)"}, "[4]": {"biological_target": "SpoIIP H142R (Clostridium difficile)"}}}
{"molecule": "SpoIIQ (natural protein)", "values": [{"measurement": "β-galactosidase activity", "setting": "[1]", "result": 701, "unit": "Miller Units"}, {"measurement": "β-galactosidase activity", "setting": "[2]", "result": 743, "unit": "MU"}]}
{"molecule": "SpoIID (natural protein) MKNPLVVLLGFVTCSVLVPSLITLVSYKNVELTEKPESPVSINKTIKKSDIEDKGNKEEKNTVNYETVNKKAPIINVYNHITGKTEKMDMENYLCGVLAGEMSSEFDIEALKAQSVAARTYVVYKQEHGKSSKHKNAVVCTDYKHCQEYKSYDTLKKLNGEEWIKNKYSKIQEAVRGTKGQIITYNDKAILPLYFSTSSGKTENSEEVFSAKYPYLKSVESPYDKYSPKFASTLKISNTDFVKSLRRAYSTIVIDVNNLSKQVSITKRSDAGTVEKIKLGNKELTGKDIRTVFKLNSANFDIKFGEGYIDFVVKGYGHGVGMSQWGAEGMAEEGYKYYDILSHYYTDTKIKDIY", "values": [{"measurement": "β-galactosidase activity", "setting": "[1]", "result": 656, "unit": "MU"}, {"measurement": "β-galactosidase activity", "setting": "[3]", "result": 699, "unit": "MU"}, {"measurement": "β-galactosidase activity", "setting": "[4]", "result": 229, "unit": "MU"}, {"measurement": "β-galactosidase activity", "setting": "[2]", "result": 761, "unit": "MU"}]}
